Experimental data published in paper PMC7509987.
Like-named read-outs stand apart in the source and are kept apart here.

B1: mTrxRΔ3 (Mus musculus) (protein)
chain: GGQQSFDLLVIGGGSGGLACAKEAAQLGKKVAVADYVEPSPRGTKWGLGGTCVNVGCIPKKLMHQAALLGGMIRDAHHYGWEVAQPVQHNWKTMAEAVQNHVKSLNWGHRVQLQDRKVKYFNIKASFVDEHTVRGVDKGGKATLLSAEHIVIATGGRPRYPTQVKGALEYGITSDDIFWLKESPGKTLVVGASYVALECAGFLTGIGLDTTVMMRSIPLRGFDQQMSSLVTEHMESHGTQFLKGCVPSHIKKLPTNQLQVTWEDHASGKEDTGTFDTVLWAIGRVPETRTLNLEKAGISTNPKNQKIIVDAQEATSVPHIYAIGDVAEGRPELTPTAIKAGKLLAQRLFGKSSTLMDYSNVPTTVFTPLEYGCVGLSEEEAVALHGQEHVEVYHAYYKPLEFTVADRDASQCYIKMVCMREPPQLVLGLHFLGPNAGEVTQGFALGIKCGASYAQVMQTVGIHPTCSEEVVKLHISKRSGLEPTVTG
B2: mTrxR-CUG (Mus musculus) (protein)
chain: GGQQSFDLLVIGGGSGGLACAKEAAQLGKKVAVADYVEPSPRGTKWGLGGTCVNVGCIPKKLMHQAALLGGMIRDAHHYGWEVAQPVQHNWKTMAEAVQNHVKSLNWGHRVQLQDRKVKYFNIKASFVDEHTVRGVDKGGKATLLSAEHIVIATGGRPRYPTQVKGALEYGITSDDIFWLKESPGKTLVVGASYVALECAGFLTGIGLDTTVMMRSIPLRGFDQQMSSLVTEHMESHGTQFLKGCVPSHIKKLPTNQLQVTWEDHASGKEDTGTFDTVLWAIGRVPETRTLNLEKAGISTNPKNQKIIVDAQEATSVPHIYAIGDVAEGRPELTPTAIKAGKLLAQRLFGKSSTLMDYSNVPTTVFTPLEYGCVGLSEEEAVALHGQEHVEVYHAYYKPLEFTVADRDASQCYIKMVCMREPPQLVLGLHFLGPNAGEVTQGFALGIKCGASYAQVMQTVGIHPTCSEEVVKLHISKRSGLEPTVTGCUG

Key:
Format in all cases: biochemical
Settings in all cases: pH 7.0; 22.0 °C
[1] = substrate: O=C(O)c1cc(SSc2ccc([N+](=O)[O-])c(C(=O)O)c2)ccc1[N+](=O)[O-]
[2] = substrate: NCC[Se][Se]CCN
[3] = substrate: O=C(O)c1cc(SSc2ccc([N+](=O)[O-])c(C(=O)O)c2)ccc1[N+](=O)[O-]; remark: listed apart in the source
[4] = substrate: NCC[Se][Se]CCN; remark: listed apart in the source

Protein	Km [1] [µM]	kcat [1] [s⁻¹]	kcat/Km [1] [M⁻¹ s⁻¹]	Km [2] [µM]	kcat [2] [s⁻¹]	kcat/Km [2] [M⁻¹ s⁻¹]	Km [3] [µM]	kcat [3] [s⁻¹]	kcat/Km [3] [M⁻¹ s⁻¹]	Km [4] [µM]	kcat [4] [s⁻¹]	kcat/Km [4] [M⁻¹ s⁻¹]
B1	12 ± 2.7	48.3 ± 8.33	4e+06	1033 ± 114	1.27 ± 0.0667	1220						
B2							3 ± 0.7	52.8 ± 7.5	1.83e+07	79 ± 0.7	62.3 ± 7.5	783000
